Reference: the supplement of paper PMC9112550, “Optimization of the antimicrobial peptide Bac7 by deep mutational scanning” (BMC Biology, 2022)

These sequences were tested on Escherichia coli TOP10 (assay: shrunken log2 fold change of peptide-encoding DNA abundance (4.5 h post-induction vs induction); higher = less antimicrobial activity (less host growth inhibition)). Conditions: time post-induction: 4.5 h; library: site-saturation at positions 5, 18, 19, 20.
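Further: peptides expressed intracellularly from a pBAD plasmid library in pooled LB shake-flask culture, induced with 0.3% L-arabinose, DNA abundance read by NGS, three biological replicates, DESeq2 with apeglm shrinkage.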

Row | Sequence | shrunken log2 fold change
1 | RRIRYRPPRLPRPRPRPVCSPRP | -0.484
2 | RRIRKRPPRLPRPRPRPNAWPRP | 0.0867
3 | RRIRDRPPRLPRPRPRPVKFPRP | 0.284
4 | RRIRVRPPRLPRPRPRPLWMPRP | -0.523
5 | RRIRARPPRLPRPRPRPLTIPRP | 0.0223
6 | RRIRVRPPRLPRPRPRPHRIPRP | -0.0697
7 | RRIRRRPPRLPRPRPRPYHCPRP | -0.37
8 | RRIRARPPRLPRPRPRPACQPRP | 0.486
9 | RRIRKRPPRLPRPRPRPIPSPRP | 0.422
10 | RRIRSRPPRLPRPRPRPGSWPRP | 0.605
11 | RRIRARPPRLPRPRPRPPFVPRP | 1.42
12 | RRIRRRPPRLPRPRPRPEWRPRP | 0.639
13 | RRIRFRPPRLPRPRPRPMWNPRP | -0.363
14 | RRIRGRPPRLPRPRPRPTFMPRP | 0.327
15 | RRIRMRPPRLPRPRPRPSKEPRP | 0.203
16 | RRIRNRPPRLPRPRPRPDHDPRP | -0.224
17 | RRIRERPPRLPRPRPRPMTLPRP | -0.000163
18 | RRIRTRPPRLPRPRPRPMSIPRP | -0.143
19 | RRIRPRPPRLPRPRPRPAWPPRP | 0.6
20 | RRIRFRPPRLPRPRPRPWVVPRP | 0.0143

Row | Sequence | shrunken log2 fold change
21 | RRIRNRPPRLPRPRPRPLLEPRP | 0.0286
22 | RRIRERPPRLPRPRPRPHTYPRP | -0.281
23 | RRIRIRPPRLPRPRPRPKKKPRP | -0.442
24 | RRIRIRPPRLPRPRPRPCISPRP | -0.32
25 | RRIRNRPPRLPRPRPRPWDAPRP | -0.157
26 | RRIRNRPPRLPRPRPRPMKVPRP | 0.0279
27 | RRIRKRPPRLPRPRPRPLNTPRP | 0.143
28 | RRIRYRPPRLPRPRPRPGWYPRP | -0.344
29 | RRIRIRPPRLPRPRPRPHESPRP | 0.0539
30 | RRIRIRPPRLPRPRPRPHWKPRP | -0.0691
31 | RRIRYRPPRLPRPRPRPDYCPRP | -0.00674
32 | RRIRWRPPRLPRPRPRPGEPPRP | 0.271
33 | RRIRLRPPRLPRPRPRPVIQPRP | -0.0903
34 | RRIRSRPPRLPRPRPRPSQEPRP | -0.26
35 | RRIRMRPPRLPRPRPRPSQSPRP | 0.53
36 | RRIRVRPPRLPRPRPRPNYIPRP | -0.631
37 | RRIRCRPPRLPRPRPRPSSIPRP | -0.565
38 | RRIRNRPPRLPRPRPRPPTVPRP | 0.175
39 | RRIRQRPPRLPRPRPRPKTYPRP | -0.241
40 | RRIRLRPPRLPRPRPRPYLTPRP | -0.663

Row | Sequence | shrunken log2 fold change
41 | RRIRHRPPRLPRPRPRPNEHPRP | 0.409
42 | RRIRQRPPRLPRPRPRPYSKPRP | -0.119
43 | RRIRRRPPRLPRPRPRPSKQPRP | -0.118
44 | RRIRRRPPRLPRPRPRPCNHPRP | -0.011
45 | RRIRKRPPRLPRPRPRPHLGPRP | -0.00957
46 | RRIRCRPPRLPRPRPRPVQCPRP | 0.207
47 | RRIRIRPPRLPRPRPRPLVPPRP | -0.33
48 | RRIRYRPPRLPRPRPRPIYWPRP | -0.204
49 | RRIRYRPPRLPRPRPRPHIMPRP | -0.955
50 | RRIRSRPPRLPRPRPRPMTRPRP | 0.381
51 | RRIRLRPPRLPRPRPRPQSEPRP | -0.0331
52 | RRIRARPPRLPRPRPRPWKLPRP | -0.36
53 | RRIRLRPPRLPRPRPRPEVNPRP | 0.0855
54 | RRIRRRPPRLPRPRPRPCTHPRP | 0.176
55 | RRIRQRPPRLPRPRPRPFFMPRP | -0.129
56 | RRIRSRPPRLPRPRPRPRTSPRP | 0.211
57 | RRIRRRPPRLPRPRPRPKGEPRP | 0.0115
58 | RRIRERPPRLPRPRPRPPDCPRP | 0.0792
59 | RRIRSRPPRLPRPRPRPLNRPRP | -0.246
60 | RRIRHRPPRLPRPRPRPVFCPRP | -0.138
